B1: TRIM63 (parent)
chain: FRCPTCRHEVIMDRHGVYGLQRNL
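Further: lentivirally expressed fusions sorted by FACS into six bins by GFP to DsRed ratio, PSI derived from sequencing read proportions per bin multiplied by bin number.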

In this data set the parent is B1. As to the kind of experiment: protein stability index of a GFP-peptide fusion (GPS, HEK-293T) (PSI 1-6); higher = more stable. To be noted: c terminus: a fixed tail appended.
Consider FRCPTCRHEVIMDRHGVKGLQRNL, for which the protein stability index came to 1.98.
For FRCPTCRHEVIMDRHGVHGLQRNL the value was 1.87; for FRCPTCRHEVIMDRHGVEGLQRNL, 3.06.
The result for FRCPTCRHEVIMDRHGVDGLQRNL reads 1.73; that for FRCPTCRHEVIMDRHGVLGLQRNL, 2.54.
For FRCPTCRHEVIMDRHGVTGLQRNL the value was 2.69; for FRCPTCRHEVIMDRHGVAGLQRNL, 1.98.
With FRCPTCRHEVIMDRHGVIGLQRNL, the protein stability index was determined as 1.86.
With FRCPTCRHEVIMDRHGVMGLQRNL, the protein stability index worked out at 3.62.
Turning to FRCPTCRHEVIMDRHGVPGLQRNL, the protein stability index is 2.23.
The result for FRCPTCRHEVIMDRHGVCGLQRNL reads 2.06; that for FRCPTCRHEVIMDRHGVFGLQRNL, 2.13.
For FRCPTCRHEVIMDRHGVQGLQRNL the value was 3.53.
The result for FRCPTCRHEVIMDRHGVWGLQRNL reads 1.94; that for FRCPTCRHEVIMDRHGVRGLQRNL, 2.08; that for FRCPTCRHEVIMDRHGVSGLQRNL, 2.62.
On to FRCPTCRHEVIMDRHGVGGLQRNL, for which the protein stability index was found to be 2.31.
For FRCPTCRHEVLMDRHGVYGLQRNL the value was 2.18.
For FRCPTCRHEVWMDRHGVYGLQRNL the value was 1.69.
As to FRCPTCRHEVYMDRHGVYGLQRNL, the protein stability index is 1.74.
For the variant FRCPTCRHEVKMDRHGVYGLQRNL, the protein stability index came to 1.77.
The result for FRCPTCRHEVTMDRHGVYGLQRNL reads 2.48; that for FRCPTCRHEVHMDRHGVYGLQRNL, 2.54; that for FRCPTCRHEVQMDRHGVYGLQRNL, 1.61.
As for FRCPTCRHEVSMDRHGVYGLQRNL, the protein stability index turned out to be 2.52.
For FRCPTCRHEVNMDRHGVYGLQRNL the value was 2.82; for FRCPTCRHEVVMDRHGVYGLQRNL, 1.88; for FRCPTCRHEVRMDRHGVYGLQRNL, 3.19.
The result for FRCPTCRHEVEMDRHGVYGLQRNL reads 1.85.
The result for FRCPTCRHEVCMDRHGVYGLQRNL reads 2.02; that for FRCPTCRHEVPMDRHGVYGLQRNL, 2.05; that for FRCPTCRHEVDMDRHGVYGLQRNL, 1.08.
Turning to FRCPTCRHEVAMDRHGVYGLQRNL, the protein stability index came out at 1.69.
As for FRCPTCRHEVGMDRHGVYGLQRNL, the protein stability index came out at 3.3.
The result for FRCPTCRHEVFMDRHGVYGLQRNL reads 2.23.
For FRCPTCRHEVIMDRHGVYGDQRNL the value was 2.42; for FRCPTCRHEVIMDRHGVYGAQRNL, 1.77.
For FRCPTCRHEVIMDRHGVYGCQRNL the value was 2.39.
FRCPTCRHEVIMDRHGVYLLQRNL: the protein stability index amounted to 1.47.
For FRCPTCRHEVIMDRHGVYELQRNL the value was 1.86.
For FRCPTCRHEVIMDRHGVYYLQRNL the value was 2.92; for FRCPTCRHEVIMDRHGVYTLQRNL, 2.8; for FRCPTCRHEVIMDRHGVYMLQRNL, 1.98.
Regarding FRCPTCRHEVIMDRHGVYDLQRNL, the protein stability index amounted to 1.67.
For FRCPTCRHEVIMDRHGVYRLQRNL the value was 2.31; for FRCPTCRHEVIMDRHGVYSLQRNL, 2.21; for FRCPTCRHEVIMDRHGVYKLQRNL, 2.07.
For FRCPTCRHEVIMDRHGVYALQRNL the value was 2.7; for FRCPTCRHEVIMDRHGVYVLQRNL, 2.14; for FRCPTCRHEVIMDRHGVYCLQRNL, 2.57.
For FRCPTCRHEVIMDRHGVYWLQRNL the value was 3.11; for FRCPTCRHEVIMDRHGVYNLQRNL, 2.21; for FRCPTCRHEVIMDRHGVYILQRNL, 1.92.
Take FRCPTCRHEVIMDRHGVYHLQRNL: the protein stability index was found to be 2.51.
The result for FRCPTCRHEVIMDRHGVYQLQRNL reads 2.46; that for FRCPTCRHEVIMDRHGVYFLQRNL, 2.28.
For FRCPTCRHEVIMDRHGVYPLQRNL the value was 2.25.
In the case of FRCPTCRHEVIMDWHGVYGLQRNL, the protein stability index amounted to 1.72.
The result for FRCPTCRHEVIMDFHGVYGLQRNL reads 1.7; that for FRCPTCRHEVIMDPHGVYGLQRNL, 2.05; that for FRCPTCRHEVIMDVHGVYGLQRNL, 1.54.
The result for FRCPTCRHEVIMDDHGVYGLQRNL reads 2.5; that for FRCPTCRHEVIMDGHGVYGLQRNL, 2.01.
As to FRCPTCRHEVIMDQHGVYGLQRNL, the protein stability index was 2.52.
The result for FRCPTCRHEVIMDTHGVYGLQRNL reads 2.29; that for FRCPTCRHEVIMDMHGVYGLQRNL, 1.91; that for FRCPTCRHEVIMDNHGVYGLQRNL, 2.16.
The result for FRCPTCRHEVIMDKHGVYGLQRNL reads 2.07; that for FRCPTCRHEVIMDYHGVYGLQRNL, 1.95.
The result for FRCPTCRHEVIMDEHGVYGLQRNL reads 3.1; that for FRCPTCRHEVIMDLHGVYGLQRNL, 2.05.
FRCPTCRHEVIMDCHGVYGLQRNL: the protein stability index was found to be 1.63.
For FRCPTCRHEVIMDHHGVYGLQRNL the value was 1.71; for FRCPTCRHEVIMDAHGVYGLQRNL, 1.99.
FRCPTCRHEVIMDIHGVYGLQRNL: the protein stability index came to 1.96.
The result for FRCPTCRHEVIMDSHGVYGLQRNL reads 3.39; that for FRCPTCRHEVIMFRHGVYGLQRNL, 1.71; that for FRCPTCRHEVIMNRHGVYGLQRNL, 1.04.
The result for FRCPTCRHEVIMRRHGVYGLQRNL reads 3.
The result for FRCPTCRHEVIMARHGVYGLQRNL reads 2.42; that for FRCPTCRHEVIMKRHGVYGLQRNL, 1.76.
For FRCPTCRHEVIMYRHGVYGLQRNL, the protein stability index was 1.69.
For FRCPTCRHEVIMPRHGVYGLQRNL the value was 2.15; for FRCPTCRHEVIMVRHGVYGLQRNL, 1.32; for FRCPTCRHEVIMCRHGVYGLQRNL, 2.18.
Regarding FRCPTCRHEVIMSRHGVYGLQRNL, the protein stability index is 2.13.
For FRCPTCRHEVIMQRHGVYGLQRNL the value was 3.89; for FRCPTCRHEVIMGRHGVYGLQRNL, 3.87; for FRCPTCRHEVIMHRHGVYGLQRNL, 1.83.
For FRCPTCRHEVIMERHGVYGLQRNL the value was 2.44; for FRCPTCRHEVIMWRHGVYGLQRNL, 2.09.
For FRCPTCRHEVIMIRHGVYGLQRNL the value was 2.07.
As to FRCPTCRHEVIMTRHGVYGLQRNL, the protein stability index came out at 1.9.
For FRCPTCRHEVIMMRHGVYGLQRNL the value was 2.79.
